This passage reports IC50 results from patent publication US20070014810A1 (published 2007).

This assay deals with T1, HLA-A*2601 (human).
T1 construct: purified HLA molecule
The experiment in a line: inhibition of 125I-labelled probe peptide binding to purified HLA, gel filtration; standard peptide.

One may read the IC50 as the concentration at which inhibition is half-maximal. With ETFGFEIQSY [standard peptide ETFGFEIQSY], the IC50 stood at 1 nM.
